Measured values taken from patent US8241627B2, “Modified polypeptides stabilized in a desired conformation and methods for producing same” (The Center for Blood Research, Inc., priority 2000, dated 2012).

Legend:
ICAM-3 = biological target: T1, ICAM-3 (Homo sapiens, UniProt P32942); test: BIAcore binding of soluble αL I-domains to ICAM-3; settings: 1:1 interaction model
T1 sequence (P32942 30-485 limits assumed): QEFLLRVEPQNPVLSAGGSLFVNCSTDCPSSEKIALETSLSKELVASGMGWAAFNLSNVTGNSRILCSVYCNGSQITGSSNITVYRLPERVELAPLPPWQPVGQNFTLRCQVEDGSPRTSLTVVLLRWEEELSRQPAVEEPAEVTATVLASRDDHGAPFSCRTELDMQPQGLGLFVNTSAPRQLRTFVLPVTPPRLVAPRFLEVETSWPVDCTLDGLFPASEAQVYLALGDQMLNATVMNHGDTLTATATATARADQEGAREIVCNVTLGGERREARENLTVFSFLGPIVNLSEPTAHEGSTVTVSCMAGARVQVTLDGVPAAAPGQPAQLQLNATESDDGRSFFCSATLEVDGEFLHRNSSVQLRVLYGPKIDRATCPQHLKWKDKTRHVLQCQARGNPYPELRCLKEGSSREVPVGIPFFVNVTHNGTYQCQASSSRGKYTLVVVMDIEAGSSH
Experimental: (§1) Briefly, recombinant mutant αL I-domain stabilized in the open conformation (K287C/K294C), or recombinant wild-type αL I-domain from amino acid residue G128 to Y307, were cloned into pET11b (Novagen) and expressed in E. coli induced with 1 mM IPTG for 4 hours. The recombinant proteins were purified from inclusion bodies by solubilization of inclusion bodies in 6M guanidine HCl and were refolded by dilution in the presence of 0.1 mM Cu^2+/phenanthrolin to enhance formation of disulfide bonds. Protein was concentrated by ammonium sulfate precipitation, dialyzed, and purified over a monoQ ion-exchange column. […] The recombinant proteins were then purified by gel filtration and concentrated by Centriprep. For BIAcore™ analysis, recombinant ICAM-1, ICAM-2 and ICAM-3 Fc chimeras were immobilized on the BIAcore™ sensor chip by an amine-coupling method. Recombinant αL I-domains were flowed in, and BIAcore™ assays were performed with Tris-buffered saline supplemented with 1 mM MgCl2 or 2 mM EDTA, at a flow rate of 10 μl/minute at 25° C.

[1] = test system: K562 cells stably expressing wild-type LFA-1; test: Inhibition by soluble I-domains of adhesion of LFA-1 expressing K562 cells to immobilized ICAM-1; assay type: cell-based, human; settings: LFA-1 activated by CBRLFA-1/2; 40 minutes at 37° C.
Experimental: The activity of the soluble open I-domain to inhibit LFA-1I-dependent adhesion was tested. In one study, K562 cells stably expressing wild-type LFA-1 were fluorescently labeled by BCECF and LFA-1 on the cell surface was activated by the activating monoclonal antibody, CBRLFA-1/2 in L15 media supplemented with FCS. The cells were subsequently incubated in ICAM-1 coated 96-well plastic plates in the presence or absence of 1-domains. After incubation for 40 minutes at 37° C., unbound cells were washed off on a Microplate Autowasher. The fluorescence content of total input cells and the bound cells in each well was quantitated on a Fluorescent Concentration Analyzer. The bound cells were expressed as a percentage of total input cells per sample well.

murine ICAM-1 = murine ICAM-1 (Mus musculus, UniProt P13597); test: Affinity of open I-domain for murine ICAM-1; assay type: binding
Sequence of murine ICAM-1 (P13597 28-537): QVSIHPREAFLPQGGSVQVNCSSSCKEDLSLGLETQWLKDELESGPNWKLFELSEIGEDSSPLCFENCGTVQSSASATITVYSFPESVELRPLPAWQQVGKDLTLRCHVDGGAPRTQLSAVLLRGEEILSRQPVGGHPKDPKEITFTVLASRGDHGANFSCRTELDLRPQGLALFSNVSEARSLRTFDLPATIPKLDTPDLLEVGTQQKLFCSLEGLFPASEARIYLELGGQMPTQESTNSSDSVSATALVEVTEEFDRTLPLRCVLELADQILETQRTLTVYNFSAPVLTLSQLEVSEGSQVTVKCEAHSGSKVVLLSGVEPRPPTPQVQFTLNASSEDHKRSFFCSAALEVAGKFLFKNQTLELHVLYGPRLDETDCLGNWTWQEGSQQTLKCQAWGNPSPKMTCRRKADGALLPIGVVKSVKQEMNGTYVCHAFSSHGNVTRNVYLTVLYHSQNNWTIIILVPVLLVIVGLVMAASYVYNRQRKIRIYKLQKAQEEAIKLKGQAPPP
Experimental: as §1
To analyze binding kinetics, different concentrations of open I-domain were tested for ligand binding (FIG. 9, Panels B, D and F).

[2] = test system: T-lymphocytes in peripheral lymph node high endothelial venules; test: Intravital microscopy of lymphocyte behaviour in peripheral lymph node high endothelial venules; assay type: in vivo; settings: mouse
Experimental: Moreover, the ability of the open I-domain mutants to inhibit LFA-1 function in vivo was tested by visualizing microcirculation in the peripheral lymph node (LN) with intravital microscopy. Briefly, a small bolus (20-50 µl) of LN cell suspensions from […] mice were retrogradely injected through a femoral artery catheter and visualized in the subiliac LN by fluorescent epi-illumination from a video-triggered xenon arc stroboscope. After recording control […] cell behavior in the absence of 1-domain, the mouse was pretreated by intra-arterial injection of 1-domain (10 µg/g of weight) 5 minutes before T^GFP cell injection. All scenes were recorded on videotape and off-line analysis was done. The rolling fraction was calculated as percentage of rolling cells amount the total number of TGFβ cells that entered a venule. The sticking (firm adhesion) fraction was determined as the percentage of T^GFP cells becoming firmly adherent for >20 seconds in the number of T^GFP cells that rolled in a venule. Results were semi-quantitatively scored as follows: −: 0%, .+−.: 0-5%, +: 5-20%, ++: 20-40%, +++: 40-60%, ++++: 60-80%, +++++:80-100%.

ICAM-2 = biological target: T2, ICAM-2 (Homo sapiens, UniProt P13598); test: BIAcore binding of soluble αL I-domains to ICAM-2; settings: 1:1 interaction model
T2 sequence (P13598 25-223 limits assumed): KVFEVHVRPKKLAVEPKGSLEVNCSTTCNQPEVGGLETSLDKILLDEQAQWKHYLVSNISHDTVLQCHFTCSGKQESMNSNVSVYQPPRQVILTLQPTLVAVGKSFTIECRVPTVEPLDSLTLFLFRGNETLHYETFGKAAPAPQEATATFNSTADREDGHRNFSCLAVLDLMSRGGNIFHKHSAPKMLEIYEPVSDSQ
Experimental: as §1

[3] = test system: murine T lymphoma cell line EL-4; test: PMA-induced LFA-1-dependent homotypic aggregation of EL-4 cells; assay type: cell-based; settings: 50 ng/ml PMA, 2 hours at 37° C.
Experimental: Cells were incubated in a 96 well plate in the presence of 50 ng/ml PMA and varying amounts of soluble I-domains.

ICAM-1 = ICAM-1 (Homo sapiens, UniProt P05362); test: BIAcore binding of soluble αL I-domains to ICAM-1
Sequence of ICAM-1 (P05362 28-480 limits assumed): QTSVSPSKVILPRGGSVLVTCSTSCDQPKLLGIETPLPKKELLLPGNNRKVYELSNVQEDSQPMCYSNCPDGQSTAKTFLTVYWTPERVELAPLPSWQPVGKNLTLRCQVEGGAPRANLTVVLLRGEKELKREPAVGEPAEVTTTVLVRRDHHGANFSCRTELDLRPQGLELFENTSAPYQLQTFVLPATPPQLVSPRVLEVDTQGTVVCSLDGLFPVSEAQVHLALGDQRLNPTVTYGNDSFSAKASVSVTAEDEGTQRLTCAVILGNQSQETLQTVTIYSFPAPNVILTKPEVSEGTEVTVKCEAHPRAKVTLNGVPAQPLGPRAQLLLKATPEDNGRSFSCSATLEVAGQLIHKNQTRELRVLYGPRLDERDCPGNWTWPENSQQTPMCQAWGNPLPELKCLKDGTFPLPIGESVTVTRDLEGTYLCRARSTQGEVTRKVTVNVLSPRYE
Experimental: as §1

[4] = BIAcore, 1:1 interaction model, 1 mM MgCl2, 25° C.

Koff, open I-domain binding to ICAM-3 (ICAM-3): 0.0749 s⁻¹ | Kon, open I-domain binding to ICAM-3 (ICAM-3): 19000 M⁻¹ s⁻¹ | affinity for murine ICAM-1 (murine ICAM-1): nanomolar range | Koff, open I-domain binding to ICAM-2 (ICAM-2): 0.0118 s⁻¹ | Kon, open I-domain binding to ICAM-2 (ICAM-2): 23000 M⁻¹ s⁻¹ | interaction of I-domain with ligands in the presence of EDTA (ICAM-1; 2 mM EDTA, ligands ICAM-1, -2, -3): abolished | Koff, open I-domain binding to ICAM-1 (ICAM-1; [4]): 0.0230 s⁻¹ | Kon, open I-domain binding to ICAM-1 (ICAM-1; [4]): 128000 M⁻¹ s⁻¹ | Kon, interaction of αL I-domains with ICAM-1 (ICAM-1; calculated by Koff/KD): 128000 M⁻¹ s⁻¹ | Koff, interaction of αL I-domains with ICAM-1 (ICAM-1; curve fitting of dissociation phase, 1:1 binding model): 0.0230 s⁻¹
B1: K287C/K294C: human αL (LFA-1) I-domain with K287 and K294 replaced by cysteines; high affinity locked open; tested in intact LFA-1, cell-surface and soluble forms (protein)
chain: GNVDLVFLFDGSMSLQPDEFQKILDFMKDVMKKLSNTSYQFAAVQFSTSYKTEFDFSDYVKRKDPDALLKHVKHMLLLTNTFGAINYVATEVFREELGARPDATKVLIIITDGEATDSGNIDAAKDIIRYIIGIGKHFQTKESQETLHKFASKPASEFVCILDTFECLKDLFTELQKKIY
notes: human αL (LFA-1) I-domain with K287 and K294 replaced by cysteines; tested in intact LFA-1, cell-surface and soluble forms
inhibition of adhesion of LFA-1 expressing cells to immobilized ICAM-1 [1]: strongly inhibited | firm adhesion of T-lymphocytes to high endothelial venules ([2]; injection of I-domain): effectively blocked | lymphocyte rolling mediated by L-selectin and PNAd ([2]; injection of I-domain): not compromised | Fraction transmigration ([2]; intra-arterial I-domain 10 μg/g): − (−: 0%) | Fraction Rolling ([2]; intra-arterial I-domain 10 μg/g 5 minutes before T-GFP cell injection): ++++ (++++: 60-80%) | Fraction firm adhesion ([2]; intra-arterial I-domain 10 μg/g, adherent >20 seconds): ± (.+−.: 0-5%) | inhibition of PMA-induced LFA-1 dependent homotypic aggregation [3]: inhibited
